Laboratory results from the RNAGym collection of RNA variant scans (doi:10.1073/pnas.2313332121).

B1: TPR t1 (parent)
chain: GACCAAUCUGCCCUCAGAGCUCGAGAACAUCUUCGGAUGCAGAGGAGGCAGGCUUCGGUGGCGCGAUAGCGCCAACGUCCUCAACCUCCAAUGCAUCCCACCACAUGAUGAUGCCUGAAGAGCCUUGGUUUUUUG

Variants of: B1
Experiment: polymerase ribozyme fitness, log enrichment relative to wild type (log ratio); higher = more active; in vitro selection for triplet polymerase activity
Outline: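 After PCR construction and transcription, each subunit's mutant library from a heterodimeric triplet polymerase ribozyme was annealed with a biotinylated primer, the partner subunit and triplets. Incubation was frozen, at −7 °C, and extended constructs were gel-excised, bound to streptavidin beads and amplified by RT-PCR, in one selection round done in triplicate. Fitness is the logarithm of a genotype's enrichment divided by that of the wild type, from inverse-variance-weighted replicate averages of Illumina-sequenced inputs and outputs. The base of the logarithm is 2, and genotypes needed ≥10 input reads and ≥1 read per output.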

Variant	polymerase ribozyme fitness (log ratio)
C8G C94A C104U	0.226
C8G G39A C73A C97A	-5.92
C8G C12G C114G	-2.57
C8G G42U G60C U81A U129G	-6.22
C8G U14A G107U	-4.05
C8G U109A	-4.06
C8G C13U G47C A74G	-0.735
C8G U21A C76G C99A U112A	-5.05
C8G C15U C62U G135U	-1.08
C8U A16U G47A C101A C124U	-1.94
C8G C40U G60C	-0.367
C8G C34G C89A U96G A100U	-7.34
C8G C22G G47A G77U	-4.32
C8G A37U U38C G47A U131A	-1.99
C8G U14C U32C G48A G52U A95U G110A	-4.18
C8G G39U	0.57
C8G C13G G17A G122A	-0.902
C8G A83G U87C C101G	-1.58
C8G G63U A75U A83G C85A G122A	-0.256
C8G G57A A84U G120U	0.672
C8G C89U U106A	0.442
C8G C49A U96A	-0.377
C8G A50U G60U C123A G128U U130A	-0.561
C8G U87A U112G G113U C123U G127A	-3.6

Variant	polymerase ribozyme fitness (log ratio)
C8G G10A A18G G65C U116G G117A	-5.46
C8G C70A U92G	-5.61
C8G C12A G63C	0.17
C8G A41C	-1.28
C8G G48A U96G U129A	-0.823
C8G A50U C53G C99U C104A C115A A121C	-7
C8U A29U G47C C72U C102A	-5.13
C8G A16G A90C U96C U112A	0.488
C8G A68U G77C G120C	-7.19
C8G C15U	-1.19
C8G C56A C94U	0.74
C8G G69C U78G C101A	-3.19
C8G U78C G93A C123A	1.83
C8G G61A C72U G128C	-0.569
C8U A29U C72A	-1.79
C8G C49G C82G A118U	0.164
C8G A29U C73A G120U	-0.106
C8G C15G U21C G36A C82U U112A	-1.27
C8U A24G G113U C114U G122A	-1.73
C8G A74U U78G	0.422
C8G G61A C94U C99G G117C	-7.13
C8U A18C A41U A50G C101U	-2.01
C8G C34A C40U U55A G69U C79U C98U G107U A111U G117C	-6.38
C8G G128U U130C	0.904

Variant	polymerase ribozyme fitness (log ratio)
C8G A18C A37C C64G A90U U106A C123A U131A	-6.48
C8G C20U C40G A90U C102U	-6.69
C8G C79U U96A U130C U133G	-0.147
C8G C80G G113U	-5.81
C8U A26G U54C G60U	-2.1
C8G G45A C56U C94A C101A	-1.64
C8G C11A C72U C88U C97U G113U G127C	-4.01
C8G U14G G36U C80U G120A	1.03
C8G U14G G35C C64U C94U C124G	-3.33
C8G A16U C94A	-0.757
C8G U54G C89G	-1.05
C8G A37U A74C C88G G110A	-3.12
C8G C22A C62U U106A	-3.64
C8G G19U C94U	-2.66
C8G A26G G57U A119G U130G	-0.722
C8G G17C C40U G61U U106A U131A	-4.28
C8G A26U U81A	-3.21
C8G G36A	-0.023
C8U A29U C70A U87A	-2.4
C8G C13A U67C	-4.98
C8G C56A C124G	1.48
C8G G60C U81A C123A	0.434
C8G A46U G52U C56A C82U C101A	-1.86
C8G A46G A66C A90U	-4.16

Variant	polymerase ribozyme fitness (log ratio)
C8G C72A C89A C94G	-1.88
C8G C22U G23A C123G	-7.38
C8G C40A C89A G120A U132A	0.693
C8G G17U A26U C72G	-4.46
C8G A26U G52A G63C	-4.29
C8G C13A G57C U78G U112A A118U	0.98
C8G C70U A74U C98U G110A	-6.03
C8G G47A C64U C97A G120U	-4.09
C8G A41G G58C A83G G110U A121G	-4.41
C8G G35U	-3.78
C8G C11U G52U U81G U92C A119G U133A	-5.64
C8G A27U G36A G42U C76A U96A U109A U116G	-6.96
C8G G47A U130C	0.26
C8G C20A U96A U131G	-3.68
C8G G61A U78C U92A	-3.12
C8G G60C	0.0647
C8G G60U	0.698
C8G G60A	0.62
C8G C13G A16U C49A U129C	-0.993
C8G A46G C72U G110A	-0.393
C8G C89A	-1.01
C8G C86G C89U G93A	-0.898
C8G A68G G71U A108G	-4.73
C8G G60C A66C U131G	-3.98

Variant	polymerase ribozyme fitness (log ratio)
C8G C13G G36A U78A A111C	0.328
C8G G93A A111C	0.513
C8G C15G C72G	-1.27
C8G A46G C56A A84C C104A C115U A118U A119U	-4.77
C8G G19C A75U C89G	-2.29
C8U A37G G52A C56U	-0.753
C8G A27U G47C	-3.02
C8U A37U C70A U112C	0.338
C8G C56U	0.485
C8G C85U C86G	-0.513
C8U A37G G61U U130A	-0.107
C8G G45A G48A G57A G61U U92G U112G	-6.23
C8G G10A C15G G77C G110A	-3.26
C8U A18U U116C	-2.04
C8U A41U C73A	-0.9
C8G C114U	-0.759
C8G A16G A41G	0.487
C8G C15U C62U C89G G93A C101U G113C C114U G127C	-4.12
C8G C82A	0.946
C8G C70U C115U	-2.38
C8G G48C A50U C53A C62G U129C	-2.9
C8G C73U C79U	0.882
C8G G47C G60A	-1.03
C8G C15U G39A C62G	-2.54

Variant	polymerase ribozyme fitness (log ratio)
C8G G113A	0.074
C8G G113C	-1.31
C8G C97U U109G C123U	-4.98
C8G G60U C85G A108U U131A	-5.69
C8G G69C U96A	-2.59
C8G C72U A90C A91U A95G	-1.1
C8G A29U G60A G77C	-2.46
C8G C12A G17C A29G A46U G47A C72U	-6.22
C8G C114A G135U	-0.31
C8U A37U C86A	-0.897
C8G G42A C53A G63A U81C C82A C86U C99G A118U	-7.86
C8G C72U	0.18
C8G C72G	0.418
C8G G58A G93U C101U A121C	0.327
C8G G69A	-1.5
C8G G36U G47A C72G U92G C115A	-6.07
C8G U21C G45U C49G	-0.918
C8G C49A G71U U92A C123U	-2.6
C8G G36C C56A C70U U96C A119U	-5
C8G C15U G48C G71A C124G	0.113
C8G C70G A74U	-4.41
C8G G63C U92A	-3.28
C8G C28G C64U U116G A121G	-2.9
C8U A16U G36C G52U C97A	-2.9

Variant	polymerase ribozyme fitness (log ratio)
C8G A46C C97G C101A C114A U130C	-6.93
C8G A29U A68G C88U U125G	-3.26
C8G C31G C82A C124U	-6.38
C8U A41G C64G	-6.15
C8U A37U C56U A83C C97U C124A	-1.47
C8U A41C G58U C94G C104U U106A U112C	-3.18
C8G C49A U54C G122U	0.439
C8G A50G	0.932
C8G U21C C22G G117C C123U C124A	-4.09
C8U A16U A66U C72G G77U C123U	-1.74
C8G A66G C85A C114U	-3.3
C8G C123U	1.6
C8G U9C A16G A24U C28U U92C U96A C99A A111U G120C	-6.18
C8G G107U	-5
C8G G10C C11U C20A U33C C56G G63U C64G C72G C114G G127U	-6.79
C8U A18C G48C A95G	-2.07
C8G G61A U109A U132C	-4.05
C8A U133A	0.119
C8G G93A G113A	-0.312
C8G U30A	-5.66
C8G C28G C56A C88A	-3.47
C8G U33G C72G C80U A103U G110C A121C U129C	-7.86
C8G C20G G63C U109G	-3.93
